Where a SMILES comes first, the peptide text is derived from it. [ ]: non-standard residue; d: D form. The star is where a group is joined. Dolaproine = CO[C@@H]([C@@H]1CCCN1)[C@@H](C)C(=O)O; Dil = CC[C@H](C)[C@H](NC)[C@@H](CC(=O)O)OC; X1 = C[C@@H](N*)[C@@H](O)c1ccccc1; NMeV = CN[C@H](C(=O)O)C(C)C
Key:
[1] = tested on: H460 human non-small cell lung carcinoma xenograft; assay: M830 alone and with gemcitabine, cisplatin or radiation in H460 human non-small cell lung carcinoma xenograft model; type: in vivo, nude mice; details: 58-day study, survival (TTE), logrank
From the text: (§1) The statistical tests were not adjusted for multiple comparisons.
Treatment began on Day 1 in eight groups of nude mice (n=10) with established subcutaneous H460 tumors of 75-126 mm^3. […] The study endpoint was a tumor volume of 2000 mm^3 or the final day, Day 58, whichever came first. […] The median TTE for controls was 15.6 days, establishing a maximum possible TGD of 42.4 days (272%) for the 58-day study.

[2] = tested on: OVCAR3 ovarian cancer model; assay: M825 and M825-MMAE in OVCAR3 ovarian cancer model; type: in vivo, mice; details: free MMAE at 0.2 mg/kg, equivalent to maximum MMAE in the 10 mg/kg ADC group
Experimental: Treatment initiated when tumor volume reached approximately 120 mm^3. M825 was given i.v. at 10 mg/kg and M825-MMAE was given i.v. at 1, 3, or 10 mg/kg, 2 times per week for 3.5 weeks. […] The 10 mg/kg ADC group was redosed on Day 56, 2 times per week.

hTEM8-AP = assay: Biocore affinity measurements of anti-TEM8 Fabs, hTEM8-AP; type: binding, human; details: Fab
[3] = Pharmacokinetics of TEM8 antibodies in mouse, multiple dose; type: in vivo
From the text: (§2) Tables 8 and 9 show pharmacokinetic properties of TEM8 antibodies according to the present invention in mouse for single dose (Table 8) and multiple dose (Table 9) treatments.

[4] = Pharmacokinetics of TEM8 antibodies in mouse, single dose; type: in vivo
From the text: as §2

3T3 fibroblasts = assay: Contractility of 3T3 fibroblasts in the presence of TGFb-1; type: cell-based
Experimental: 3T3 cells were cultured and contractility in the presence of TGFb-1 was measured in control or M825 exposed cells. […] Contractile forces are thought to contribute to increased cancer cell invasion.

[5] = tested on: H460 non-small cell lung carcinoma xenograft; assay: M830 alone and with bevacizumab or paclitaxel in the H460 non-small cell lung carcinoma xenograft model; type: in vivo, athymic nude mice; details: combination partner Paclitaxel
Experimental: Animals were monitored for regression responses.
as §1
Cultured H460 cells were harvested during exponential growth and resuspended in phosphate buffered saline at a concentration of 1×10^8 cells/mL. 1.0×10^7 tumor cells were injected subcutaneously into the flank of athymic nude mice. Animals were euthanized when tumors reached the pre-determined volume endpoint of 2000 mm^3 or on the final day (Day 88), whichever came first. […] Each treatment produced a significant survival difference versus controls (P<0.01). The median TTE for controls was 22.8 days, establishing a maximum possible TGD of 65.2 days (286%) for the 88-day study.

UACC melanoma cells = assay: TEM8 antibody efficacy in UACC melanoma model; type: in vivo, mice; details: 15 mg/kg, 3 times per week for 3-4 weeks; treatment initiated at 50 mm^3
Experimental: UACC melanoma cells were cultured and injected subcutaneously into mice. Treatment was initiated with a tumor volume of 50 mm^3, and treatment groups consisted of one of four TEM8 antibodies (M825, M830, M863, and M822), each dosed at 15 mg/kg, 3 times per week for 3-4 weeks.

FcγRIIIa (CD16a) = FcγRIIIa (CD16a) (Homo sapiens, UniProt P08637); assay: Binding of M830 Fc mutant to FcγRIIIa (ADCC); details: Fc mutant form compared with M830
From the text: Fc mutations which increase ADCC are known in the art. For example, substitutions in the IgG constant region such as S239D, A330L, and I332E are known to increase binding to the FCy receptor. (see, e.g., Lazar et al., Proc. Natl., Acad. Sci. U.S.A., 103:4005-4010, 2006). In the present example, the M830 Fc S239D:I332E double mutant was generated and confirmed by standard molecular biology techniques (830M: S239D/I332E).

Chain of hTEM8-AP (Q9H6X2 33-321): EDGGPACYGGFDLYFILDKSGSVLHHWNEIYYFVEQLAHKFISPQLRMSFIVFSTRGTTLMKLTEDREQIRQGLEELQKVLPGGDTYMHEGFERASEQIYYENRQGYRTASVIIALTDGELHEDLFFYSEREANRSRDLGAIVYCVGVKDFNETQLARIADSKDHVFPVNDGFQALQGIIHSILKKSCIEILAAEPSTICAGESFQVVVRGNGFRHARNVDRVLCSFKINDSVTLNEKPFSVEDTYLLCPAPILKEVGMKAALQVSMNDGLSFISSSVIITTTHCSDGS
Chain of FcγRIIIa (CD16a) (P08637 17-254): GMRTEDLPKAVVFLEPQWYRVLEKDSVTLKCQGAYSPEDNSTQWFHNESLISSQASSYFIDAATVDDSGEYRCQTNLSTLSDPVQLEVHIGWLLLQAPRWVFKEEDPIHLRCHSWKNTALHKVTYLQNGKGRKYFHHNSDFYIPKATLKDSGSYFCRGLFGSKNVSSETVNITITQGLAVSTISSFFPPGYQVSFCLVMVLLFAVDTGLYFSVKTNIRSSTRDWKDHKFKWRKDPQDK

Row | Molecule | outcome compared to vehicle-treated controls [1] | AUCI ([3]; 5 mg/kg) [µg·h/mL] | AUCT ([3]; 5 mg/kg) [µg·h/mL] | AUCI ([3]; 15 mg/kg) [µg·h/mL] | AUCT ([3]; 15 mg/kg) [µg·h/mL] | AUCI ([4]; 5 mg/kg) [µg·h/mL] | AUCT ([4]; 5 mg/kg) [µg·h/mL] | AUCT ([4]; 15 mg/kg) [µg·h/mL] | other results
1 | N.N.[Cl][Pt][Cl] [Cisplatin, cisplatin] | statistically significant survival benefit |  |  |  |  |  |  |  | 
2 | CC[C@H](C)[C@@H]([C@@H](CC(=O)N1CCC[C@H]1[C@H](OC)[C@@H](C)C(=O)N[C@H](C)[C@@H](O)c1ccccc1)OC)N(C)C(=O)[C@@H](NC(=O)[C@@H](NC)C(C)C)C(C)C [MMAE, reference compound] (H-[NMeV]V[Dil][Dolaproine]-X1) |  |  |  |  |  |  |  |  | effect in OVCAR3 model [2]: No effect
3 | M825: TEM8 monoclonal antibody (hIgG1); VH SEQ ID NO:1, VL SEQ ID NO:2 [Antibody M825] |  | 1408.345 | 1408.201 | 21649.446 | 21648.879 | 1310.519 | 1310.222 | 8991.767 | Kd (hTEM8-AP): 0.0591 nM; AUCI ([4]; 15 mg/kg): 9239.202 µg·h/mL; contractility of activated 3T3 fibroblasts in vitro (3T3 fibroblasts): block the contractility
4 | Nc1ccn([C@@H]2O[C@H](CO)[C@@H](O)C2(F)F)c(=O)n1 [gemcitabine] | not statistically different from vehicle-treated controls |  |  |  |  |  |  |  | 
5 | M830: TEM8 monoclonal antibody (hIgG1); VH SEQ ID NO:5, VL SEQ ID NO:6 (antibody, V domains shown, TEM830 mAb VH; TEM830 mAb VL) VH: EVQLVESGGGVVQPGRSVRLSCAASGFTFSTYTMHWVRQAPGKGLEWVAIISNDGSNKYYADPVRGRFTISRDNSKNTLYLQMNSLRAEDTAVYYCVRGSSWYRGNWFDPWGQGTLVTVSS VL: DIQMTQSPSSLSASVGDRVTIACRASQTISRYLNWYQQKPGKAPKLLIYAASSLQSGVSSRFSGSGSGTEFTLTISSLQPEDFATYFCQQTYSPPITFGQGTRLEIKR | not statistically different from vehicle-treated controls | 4316.79 | 4315.918 | 23053.875 | 23052.853 | 2242.485 | 2242.286 | 10692.598 | Kd (hTEM8-AP): 1.57 nM; regression (with % Tumor Reduction vs. Vehicle at Day 21) [5]: −61%; AUCI ([4]; 15 mg/kg): 10692.742 µg·h/mL; tumor growth in the UACC melanoma model (UACC melanoma cells): effective at slowing tumor growth
6 | M863: TEM8 monoclonal antibody (hIgG1); VH SEQ ID NO:7, VL SEQ ID NO:8 (antibody, V domains shown, TEM863 mAb VH; TEM863 mAb VL) VH: EVQLVETGAEVKKPGASVKVSCKASGYTFTGYYMHWVRQAPGQGLEWMGWINPTSGSTNYAQKFQGRVTMTRDTSISTAYMELSGLRSDDTAVYYCVRDPGSPKWLAFDPWGQGTLVTVSS VL: DIQLTQSPSSLSASVGDRVTITCRASRAISRYLNWYQQKPGKAPKLLIYAASSLQSGVSSRFSGSGSGTEFTLTISSLQPEDFATYFCQQTYSPPITFGQGTRLEIKR |  | 1425.735 | 1425.565 | 7272.672 | 7271.7 | 1330.847 | 1330.742 | 10721.535 | 
7 | M830 Fc S239D:I332E double mutant: M830 with Fc substitutions S239D and I332E made to increase ADCC (antibody, left off: a dimerising Fc or GST, M830 with Fc substitutions S239D and I332E made to increase ADCC) heavy: EVQLVESGGGVVQPGRSVRLSCAASGFTFSTYTMHWVRQAPGKGLEWVAIISNDGSNKYYADPVRGRFTISRDNSKNTLYLQMNSLRAEDTAVYYCVRGSSWYRGNWFDPWGQGTLVTVSS VL: DIQMTQSPSSLSASVGDRVTIACRASQTISRYLNWYQQKPGKAPKLLIYAASSLQSGVSSRFSGSGSGTEFTLTISSLQPEDFATYFCQQTYSPPITFGQGTRLEIKR |  |  |  |  |  |  |  |  | binding to FcγRIIIa (CD16a) (FcγRIIIa (CD16a)): significantly enhanced binding

Source: patent publication US10758613B2, “Combination therapies using anti-metabolites and agents that target tumor-associated stroma or tumor cells” (BIOMED VALLEY DISCOVERIES, INC., priority 2014, dated 2020)
